Test results as given in patent US20220267412A1.

Target: porcine pancreatic elastase (porcine) (UniProt P00772)
Test: cell-based or functional assay

Sequence of porcine pancreatic elastase (porcine) (P00772 27-266): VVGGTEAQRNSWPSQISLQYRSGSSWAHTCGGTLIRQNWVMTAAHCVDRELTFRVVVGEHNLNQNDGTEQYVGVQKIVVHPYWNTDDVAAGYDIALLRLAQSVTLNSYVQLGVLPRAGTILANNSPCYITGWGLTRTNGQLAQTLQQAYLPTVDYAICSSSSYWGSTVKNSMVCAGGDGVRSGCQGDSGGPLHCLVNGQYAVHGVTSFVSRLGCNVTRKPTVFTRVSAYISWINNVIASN

amount of purified protein to fully inhibit PPE (typically 160 nM, 200 uL, +40 mM 2-ME): 13 µg
Substance: human serpin B1 C344S variant (from UniProt P30740 1-379)
